Patent US20130266958A1 (INTERNATIONAL INSTITUTE OF CANCER IMMUNOLOGY, published 2013)

Assays:
Test in all cases: HPLC folding test (Superdex 200), HLA class II monomer protein with 50-fold molar peptide, against solvent only
[1] = target: T1, HLA class II monomer protein DRB1* 1501 (human)
T1 construct: Soluble MHC class II monomer protein used in the HPLC folding test; also called HLA-DRB1* 1501 molecule
Procedure: (§1) After reacting the solution at 37° C., the retention time was analyzed using HPLC.
(§2) As a folding buffer, a 10% amount of a mixed solution of an HLA class II monomer protein and a peptide was added. The amount of the folding buffer added was calculated using the following calculation equation.
(§3) To a glass vial charged with an HLA class II monomer protein, a peptide solution and a folding buffer were added in a calculated amount, and the mixture was allowed to stand at 37° C. overnight. HPLC (Waters 2695 Separation Module) was started, and a Seperdex 200 column was equilibrated with an equilibrating buffer. To all samples, 300 μL of the equilibrate buffer was added and well mixed, and a 100 μL portion of the mixture was used as a sample injection volume to calculate the retention time. Analysis time was 50 minutes. The criterion for the folding of an HLA class II monomer protein with a peptide is a shift of the retention time of not less than 0.1 minute as compared with a control (solvent only).

[2] = target: T2, HLA class II monomer protein DRB1* 0803 (human)
T2 construct: Soluble MHC class II monomer protein used in the HPLC folding test; also called HLA-DRB1* 0803 molecule
Procedure: as §1, §2, §3

[3] = target: T3, HLA class II monomer protein DRB1* 1502 (human)
T3 construct: Soluble MHC class II monomer protein used in the HPLC folding test; also called HLA-DRB1* 1502 molecule
Procedure: as §1, §2, §3

[4] = target: T4, HLA class II monomer protein DRB1* 0101 (human)
T4 construct: Soluble MHC class II monomer protein used in the HPLC folding test
Procedure: as §1, §2, §3

[5] = target: T5, HLA class II monomer protein DRB1* 0901 (human)
T5 construct: Soluble MHC class II monomer protein used in the HPLC folding test; also called HLA-DRB1* 0901 molecule
Procedure: as §1, §2, §3

[6] = target: T6, HLA class II monomer protein DRB4* 0101 (human)
T6 construct: Soluble MHC class II monomer protein used in the HPLC folding test
Procedure: as §1, §2, §3

[7] = target: T7, HLA class II monomer protein DRB1* 0405 (human)
T7 construct: Soluble MHC class II monomer protein used in the HPLC folding test
Procedure: as §1, §2, §3

Measured: degree of shift of the retention time

B1: WT1-332 (a peptide consisting of the amino acid sequence depicted in SEQ ID NO:2) (peptide)
peptide: KRYFKLSHLQMHSRKH
notes: Synthetic peptide; part of human WT1 protein; also called WT1 peptide
≥ 0.1 min: all assays above
